From PMC5919683, “Transcription factor HAT1 is a substrate of SnRK2.3 kinase and negatively regulates ABA synthesis and signaling in Arabidopsis responding to drought” (PLoS Genetics, 2018)

T1: GST-SnRK2.6 (Arabidopsis thaliana, UniProt Q940H6 1-362)
T1 construct: SnRK2.6 of Arabidopsis; coding region inserted into pGEX-6P-1; also called GST-SnRK2s; source: recombinant (pGEX-6P-1 vector); purification told only for GST-SnRK2.3
T1 sequence (looked up): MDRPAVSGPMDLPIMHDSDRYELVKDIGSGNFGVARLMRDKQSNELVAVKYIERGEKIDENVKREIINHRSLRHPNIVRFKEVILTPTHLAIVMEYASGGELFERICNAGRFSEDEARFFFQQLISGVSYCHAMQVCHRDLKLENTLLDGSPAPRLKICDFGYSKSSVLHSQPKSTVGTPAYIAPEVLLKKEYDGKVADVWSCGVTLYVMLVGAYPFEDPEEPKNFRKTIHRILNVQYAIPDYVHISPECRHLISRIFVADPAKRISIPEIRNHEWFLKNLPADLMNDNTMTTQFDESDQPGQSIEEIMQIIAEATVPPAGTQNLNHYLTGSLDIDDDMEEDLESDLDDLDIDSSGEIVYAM

T2: GST-SnRK2.2 (Arabidopsis thaliana, UniProt Q39192 1-362)
T2 construct: SnRK2.2 of Arabidopsis; coding region inserted into pGEX-6P-1; also called GST-SnRK2s; source: recombinant (pGEX-6P-1 vector); purification told only for GST-SnRK2.3
T2 sequence (looked up): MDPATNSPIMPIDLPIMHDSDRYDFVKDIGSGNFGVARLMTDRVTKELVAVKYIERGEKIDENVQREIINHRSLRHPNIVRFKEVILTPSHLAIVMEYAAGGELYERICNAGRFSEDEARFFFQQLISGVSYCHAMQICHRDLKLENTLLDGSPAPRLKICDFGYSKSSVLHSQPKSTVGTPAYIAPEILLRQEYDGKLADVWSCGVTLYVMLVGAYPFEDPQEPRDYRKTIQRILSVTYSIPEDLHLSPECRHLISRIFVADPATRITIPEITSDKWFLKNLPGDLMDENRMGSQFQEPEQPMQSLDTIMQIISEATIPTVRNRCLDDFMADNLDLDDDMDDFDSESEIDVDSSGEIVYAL

T3: GST-SnRK2.3 (Arabidopsis thaliana, UniProt Q39193 1-361)
T3 construct: SnRK2.3 of Arabidopsis; coding region inserted into pGEX-6P-1; also called GST-SnRK2s; SnRK2.3 fused with GST; source: recombinant (pGEX-6P-1 vector), purified with glutathione beads (Sigma)
T3 sequence (looked up): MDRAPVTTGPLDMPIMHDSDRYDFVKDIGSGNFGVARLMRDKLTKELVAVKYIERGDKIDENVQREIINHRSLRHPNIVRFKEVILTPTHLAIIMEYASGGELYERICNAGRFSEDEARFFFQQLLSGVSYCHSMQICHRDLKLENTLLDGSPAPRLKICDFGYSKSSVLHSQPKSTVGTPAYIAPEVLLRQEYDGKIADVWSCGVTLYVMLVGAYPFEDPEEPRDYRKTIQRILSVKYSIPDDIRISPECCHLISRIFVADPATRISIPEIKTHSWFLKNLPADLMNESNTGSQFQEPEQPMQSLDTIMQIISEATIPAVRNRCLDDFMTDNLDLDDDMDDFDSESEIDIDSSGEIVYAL

T4: MBP-HAT1 (Arabidopsis thaliana (Col-0), UniProt P46600 1-282)
T4 sequence: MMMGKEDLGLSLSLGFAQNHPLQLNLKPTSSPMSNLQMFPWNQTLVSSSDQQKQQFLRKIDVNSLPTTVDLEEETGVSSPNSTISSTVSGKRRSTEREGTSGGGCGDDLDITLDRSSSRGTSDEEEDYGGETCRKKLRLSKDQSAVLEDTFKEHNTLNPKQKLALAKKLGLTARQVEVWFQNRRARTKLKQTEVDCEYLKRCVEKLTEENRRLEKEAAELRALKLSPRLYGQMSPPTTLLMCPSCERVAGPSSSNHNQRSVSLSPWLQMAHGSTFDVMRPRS


Experiments:
[1] = target: T1, GST-SnRK2.6; assay: pull-down; GST pull-down: GST or GST-SnRK2s as bait, MBP-tagged HAT1 or its domains detected by western blotting with anti-MBP antibody; conditions: both partners purified
[2] = target: T2, GST-SnRK2.2; assay: as above; conditions: both partners purified
[3] = target: T3, GST-SnRK2.3; assay: as above; conditions: both partners purified
[4] = target: T4, MBP-HAT1; assay: EMSA; EMSA: 25 mM HEPES-KOH pH 8.0, 50 mM KCl, 1 mM DTT, 10% glycerol, 20 uL, ~1 ng probe, 30 min on ice; 5% native PAGE, 1x TGE pH 8.7; conditions: protein: recombinant; tags: MBP (pETMALc-H); chain copies: 2

binding result [1]	binding result [2]	binding result [3]	Binder	binding result [4]
binds	binds	binds	MBP-HAT1 (natural protein, Arabidopsis thaliana, UniProt P46600 1-282, looked up, HAT1 of Arabidopsis thaliana; the HAT1 coding region amplified from Col-0 cDNA; The methods of the EMSA speak of recombinant proteins purified from E. coli; also called MBP-tagged HAT1; MBP-fusion HAT1 protein; source: recombinant (pETMALc-H vector), purified with amylose resin (NEB)) MMMGKEDLGLSLSLGFAQNHPLQLNLKPTSSPMSNLQMFPWNQTLVSSSDQQKQQFLRKIDVNSLPTTVDLEEETGVSSPNSTISSTVSGKRRSTEREGTSGGGCGDDLDITLDRSSSRGTSDEEEDYGGETCRKKLRLSKDQSAVLEDTFKEHNTLNPKQKLALAKKLGLTARQVEVWFQNRRARTKLKQTEVDCEYLKRCVEKLTEENRRLEKEAAELRALKLSPRLYGQMSPPTTLLMCPSCERVAGPSSSNHNQRSVSLSPWLQMAHGSTFDVMRPRS	–
–	–	–	NCED3 N1 mutant probe (dsDNA) DNA 1: AAACATTCGCTGGTCGTTGTTACTCTATTCTTCTAAA DNA 2: TTTAGAAGAATAGAGTAACAACGACCAGCGAATGTTT	no binding
–	–	–	NCED3 N1 WT probe (dsDNA) DNA 1: AAAAATTCCAATTATTGTGTTACTCTATTCTTCTAAA DNA 2: TTTAGAAGAATAGAGTAACACAATAATTGGAATTTTT	binds
–	–	–	ABA3 A1 WT probe (dsDNA) DNA 1: ATATTTAATTTAATAATTATTGGTTTAAACAAAATT DNA 2: AATTTTGTTTAAACCAATAATTATTAAATTAAATAT	binds
–	–	–	ABA3 A1 mutant probe (dsDNA) DNA 1: ATATTTAATTGCTGGTCGTTGGTTTAAACAAAATT DNA 2: AATTTTGTTTAAACCAACGACCAGCAATTAAATAT	no binding
